In the supplement of paper PMC10567573:

B1: CPXM2 (parent)
chain: TASTKNCMVGYDMGATRCDFTLSK
B2: MLL5 (parent)
chain: HDDGYMICCDKCSVWQHIDCMGID

Variants of: B1
Experiment: protein stability index of a GFP-peptide fusion (GPS, HEK-293T) (PSI 1-6); higher = more stable
Conditions: c terminus: a fixed tail appended
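Also: lentivirally expressed fusions sorted by FACS into six bins by GFP to DsRed ratio, PSI derived from sequencing read proportions per bin multiplied by bin number.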

Protein stability index, by site and new letter:
A15: Y 2.19 | W 2.71 | I 2.58 | S 1.68 | M 2.07 | T 2.37 | P 2.33 | R 1.89 | C 1.8 | F 2.51 | H 2.89 | E 2.75 | G 2.61 | N 2.62 | D 2.78 | V 3.16 | Q 2.77 | K 2.84 | L 2.71
T16: A 2.7 | F 1.75 | C 2.26 | I 1.6 | L 2.45 | H 2.47 | E 2.97 | G 2.27 | K 2.74 | D 3.72
S3: D 3.57 | M 2.1 | H 1.97 | K 1.99 | I 1.67 | Q 1.91 | Y 1.88 | V 3.26 | N 2.37 | F 1.63 | T 2.4 | W 2.09 | A 2.3 | L 2.16 | R 1.28 | P 2.57 | E 3.06 | C 2.08 | G 2.47
G10: F 1.58 | N 1.86 | W 1.64 | P 1.76 | L 2.38 | S 2.75 | A 1.97 | K 2.42 | Y 3.56 | T 1.93 | Q 1.73 | I 1.67 | D 2.37 | H 1.74 | R 1.84 | V 2.72 | E 2.69 | C 2.2 | M 1.96
M8: D 4.13 | K 3.26 | T 2.42 | Q 2.62 | V 2.03 | I 1.62 | N 3.95 | E 4.05 | R 1.35 | S 2.48 | A 1.88 | G 2.08 | F 2.73 | W 2.15 | P 2.06 | C 1.77 | L 2.14 | Y 2.22 | H 2.76
C7: K 3.18 | S 3.77 | F 3.21 | D 4 | A 3.74 | R 3.26 | L 3.27 | I 3.11 | G 3.75 | H 3.48 | P 3.48 | N 3.84 | Y 2.71 | M 3.06 | T 3.24 | E 4.44 | V 3.46 | Q 3.69 | W 2.99
V9: P 2.89 | N 2.81 | T 3.22 | Q 3.5 | H 2.3 | C 2.31 | A 2.62 | Y 2 | W 2.09 | M 2.42 | D 3.58 | K 2.12 | F 1.63 | E 3.33 | G 3.52 | I 2.49 | R 2.18 | L 2.05 | S 2.36
T4: E 2.12 | Y 2 | P 2.47 | R 1.91 | F 1.92 | I 2.25 | K 2.01 | D 3.17 | A 2.23 | S 1.93 | H 2 | N 2.4 | M 2.58 | L 1.85 | W 1.82 | Q 2.25 | C 2.65
G14: S 2.5 | H 3 | C 1.99 | A 2.89 | E 2.97 | Q 2.44 | V 1.75 | F 1.93 | W 2.15 | P 2.84 | D 3.63 | Y 1.59 | M 2.17 | K 2.76 | T 2.76 | I 2.31 | L 2.31 | N 3.17 | R 2.88
D12: M 1.46 | G 1.89 | E 2.02 | S 2.72 | V 2.44 | W 1.98 | K 2.47 | P 2.15 | I 1.58 | N 2.02 | T 1.98 | A 2.37 | R 2.58 | H 2.14 | Q 2.14 | L 1.21 | Y 1.69 | C 1.88 | F 1.62
A2: R 2.68 | V 2.21 | Y 2.31 | D 3.75 | L 1.99 | S 2.58 | M 2.41 | P 3.08 | W 1.73 | H 2.26 | K 2.04 | N 3.16 | C 1.64 | F 2.58 | I 1.8 | Q 2.94 | T 2.06 | E 3.9 | G 2.91
Y11: M 2.49 | Q 3 | N 2.6 | F 1.38 | L 2.41 | K 2.96 | E 3.49 | R 2.59 | T 2.85 | V 2.33 | C 2.07 | W 2.23 | I 2.06 | H 3.32 | A 2.92 | G 3.49 | S 2.28 | D 3.33 | P 2.31
K5: T 2.35 | A 2.3 | I 2.04 | F 2.25 | Q 2.4 | C 1.74 | R 1.59 | E 3.21 | M 2.38 | Y 1.72 | L 2.29 | S 2.63 | G 2.46 | N 2.28 | W 1.97 | D 3.25 | P 3.18 | V 2.42 | H 2.4
M13: S 2.81 | T 2.99 | H 2.64 | F 2.01 | K 1.91 | A 2.74 | E 3.92 | Q 3.19 | C 2.08 | N 3.21 | R 2.5 | Y 2.54 | P 2.31 | D 3.76 | L 2.58 | G 2.99 | I 2.11 | W 2.02 | V 3.02
N6: Y 1.68 | P 3.12 | M 2.34 | V 2.16 | F 2.12 | K 1.87 | C 1.62 | I 1.89 | A 2.69 | D 3.5 | S 2.66 | E 3.22 | H 2.04 | Q 2.72 | L 1.83 | W 2.34 | R 2.04 | G 2.38 | T 3.1
T1: C 1.68 | M 2.45 | Y 1.71 | V 1.61 | P 2.1 | H 1.82 | D 3.69 | L 2.18 | R 1.92 | N 2.51 | K 2.05 | E 3.37 | I 1.8 | Q 2.52 | S 2.86 | W 1.59 | A 2.66 | G 1.88

Variants of: B2
Experiment: as above
Conditions: c terminus: a fixed tail appended

Protein stability index, by site and new letter:
I23: G 2.95 | F 2.1 | W 1.77 | V 2.95 | K 2.99 | L 2.57 | E 3.53 | H 3.15 | Q 2.89 | A 2.56 | R 2.83 | Y 2.34 | T 2.85 | C 3.67 | N 2.52 | P 2.5 | D 2.71 | M 2.36 | S 2.58
G22: T 2.19 | V 1.59 | Y 2.24 | W 2.06
D24: G 2.19 | A 2.17 | V 2.47 | E 2.46 | Q 2.47 | S 2.35 | N 2.09 | H 2.29 | M 1.56 | I 2.21 | P 2 | W 1.49 | R 1.93 | T 1.94 | F 1.89 | L 2.79 | C 2.68 | K 2.13 | Y 1.61
